# Laboratory results reported in patent US20040010124A1 (MacroGenics, published 2004).
# Target: T1, soluble form of human CD16A (sCD16A) (human, UniProt P08637 17-203)
# T1 construct: CD16A gene truncated just prior to the transmembrane region, expressed in HEK-293; The last seven residues come from vector pCDNA3.1; also called sFcRIIIa
# Assay: ELISA, sCD16A captured by mAb LNK-16
# Protocol: The plate was washed and dilutions of recombinant antibodies starting at 0.5 μg/ml in PBS-T-BSA were then added and incubated for 1 hr at room temp. […] After stopping color development using dilute sulfuric acid, the plate was read at 450 nm.
# T1 sequence (P08637 other isoform, or with tags, fused parts or gaps limits assumed): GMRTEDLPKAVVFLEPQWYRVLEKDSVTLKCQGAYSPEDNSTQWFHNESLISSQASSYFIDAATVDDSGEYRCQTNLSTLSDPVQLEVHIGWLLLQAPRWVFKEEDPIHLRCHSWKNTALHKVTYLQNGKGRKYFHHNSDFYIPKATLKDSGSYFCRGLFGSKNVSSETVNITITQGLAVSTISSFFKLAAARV
row,Binder,binding result
1,"hu3G8VH-40/hu3G8VL-1 (antibody, V domains shown, Human Cγ1/Cκ constant regions; HEK-293) VH: QITLKESGPTLVKPTQTLTLTCTFSGFSLSTSGVGVGWIRQPPGKALEWLAHIFWDDDKRYSPSLKSRLTISKDTSKNQVVLTMTNMDPVDTATYYCARINPAWFAYWGQGTLVTVSS VL: DIVMTQSPDSLAVSLGERATINCKASQSVDFDGDSFMNWYQQKPGQPPKLLIYTTSNLESGVPDRFSGSGSGTDFTLTISSLQAEDVAVYYCQQSNEDPYTFGQGTKLEIK",binds
2,"hu3G8VH-44/hu3G8VL-1 (antibody, V domains shown, Human Cγ1/Cκ constant regions; HEK-293) VH: QITLKESGPTLVKPTQTLTLTCTFSGFSLSTSGVGVGWIRQPPGKALEWLAHIWWDDDKRYSPSLKSRLTITKDTSKNQVVLTMTNMDPVDTATYYCAHINPAYFDYWGQGTLVTVSS VL: DIVMTQSPDSLAVSLGERATINCKASQSVDFDGDSFMNWYQQKPGQPPKLLIYTTSNLESGVPDRFSGSGSGTDFTLTISSLQAEDVAVYYCQQSNEDPYTFGQGTKLEIK",binds
3,"hu3G8VH-43/hu3G8VL-1 (antibody, V domains shown, Human Cγ1/Cκ constant regions; HEK-293) VH: QITLKESGPTLVKPTQTLTLTCTFSGFSLSTSGVGVGWIRQPPGKALEWLAHIWWDDDKRYSPSLKSRLTITKDTSKNQVVLTMTNMDPVDTATYYCARINPAYFAYWGQGTLVTVSS VL: DIVMTQSPDSLAVSLGERATINCKASQSVDFDGDSFMNWYQQKPGQPPKLLIYTTSNLESGVPDRFSGSGSGTDFTLTISSLQAEDVAVYYCQQSNEDPYTFGQGTKLEIK",binds

# Second part, the binder after the results:
row,binding result,Binder
1,binds,"hu3G8VH-42/hu3G8VL-1 (antibody, V domains shown, Human Cγ1/Cκ constant regions; HEK-293) VH: QITLKESGPTLVKPTQTLTLTCTFSGFSLSTSGVGVGWIRQPPGKALEWLAHIWWDDDKRYSPSLKSRLTITKDTSKNQVVLTMTNMDPVDTATYYCARINPAWFAYWGQGTLVTVSS VL: DIVMTQSPDSLAVSLGERATINCKASQSVDFDGDSFMNWYQQKPGQPPKLLIYTTSNLESGVPDRFSGSGSGTDFTLTISSLQAEDVAVYYCQQSNEDPYTFGQGTKLEIK"
2,binds,"hu3G8VH-45/hu3G8VL-1 (antibody, V domains shown, Human Cγ1/Cκ constant regions; HEK-293) VH: QITLKESGPTLVKPTQTLTLTCTFSGFSLSTSGVGVGWIRQPPGKALEWLAHIWWDDDKRYSPSLKSRLTITKDTSKNQVVLTMTNMDPVDTATYYCAQINPAYFDYWGQGTLVTVSS VL: DIVMTQSPDSLAVSLGERATINCKASQSVDFDGDSFMNWYQQKPGQPPKLLIYTTSNLESGVPDRFSGSGSGTDFTLTISSLQAEDVAVYYCQQSNEDPYTFGQGTKLEIK"

# Target: T1, soluble form of human CD16A (sCD16A)
# Assay: in vitro, method not given
# Excerpt: The same format was used to assay binding of sFcRs to immune complexes (IC) formed on the ELISA plate between ch4-4-20 and FITC-BSA.
# After one hour, binding of the soluble receptor to the IC was detected using streptavidin-HRP conjugate and TMB development.
row,binding result,Binder
1,binds,"chimeric antibody ch3G8 (ch3G8VH/ch3G8VL) (antibody, V domains shown, Mouse 3G8 VH (FR4 ala to ser) on human Cγ1 and mouse 3G8 VL on human Cκ; also called chimeric 3G8; ch3G8-γ1) VH: QVTLKESGPGILQPSQTLSLTCSFSGFSLRTSGMGVGWIRQPSGKGLEWLAHIWWDDDKRYNPALKSRLTISKDTSSNQVFLKIASVDTADTATYYCAQINPAWFAYWGQGTLVTVSS VL: DTVLTQSPASLAVSLGQRATISCKASQSVDFDGDSFMNWYQQKPGQPPKLLIYTTSNLESGIPARFSASGSGTDFTLNIHPVEEEDTATYYCQQSNEDPYTFGGGTKLEIK"
